The source of these data is article PMC5648539.

The test addresses FLAG-tagged human CXCR4, wild type (human) (UniProt P61073).

FLAG-tagged human CXCR4, wild type (human), sequence (P61073 whole entry): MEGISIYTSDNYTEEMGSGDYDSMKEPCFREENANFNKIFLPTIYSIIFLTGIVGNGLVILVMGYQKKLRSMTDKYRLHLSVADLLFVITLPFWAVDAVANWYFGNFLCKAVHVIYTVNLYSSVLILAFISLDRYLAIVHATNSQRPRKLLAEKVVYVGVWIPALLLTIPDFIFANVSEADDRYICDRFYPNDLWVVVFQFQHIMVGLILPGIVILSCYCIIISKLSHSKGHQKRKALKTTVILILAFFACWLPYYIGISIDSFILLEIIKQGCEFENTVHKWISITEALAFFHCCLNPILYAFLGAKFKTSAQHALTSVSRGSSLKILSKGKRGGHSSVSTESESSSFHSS

In turn, “CXCL12(R8A) (from UniProt P48061-2 22-89) (ligand)” came in with a Ca2+ flux response (potency) of 110 nM. The same measure, in the same setting: for “CXCL12(R12A) (from UniProt P48061-2 22-89) (ligand)” the value was 95 nM. In the case of “CXCL12 with Asn33 mutated to glutamic acid (from UniProt P48061-2 22-89) (ligand)”, the Ca2+ flux dose response (printed as Kd) is 21 nM.
